T1: C.Esp1396I controller protein (plasmid pEsp1396I (type II RM system …, UniProt Q8GGH0 1-79))
T1 sequence: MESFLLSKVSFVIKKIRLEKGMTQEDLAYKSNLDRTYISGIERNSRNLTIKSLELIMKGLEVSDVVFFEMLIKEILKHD


Experiments:
[1] = target: T1, C.Esp1396I controller protein; test: X-ray crystallography; dimer bound at OL via HTH, OR half unbound; 10 mM spermidine, protein:DNA 2:1; Crystallization by vapour diffusion: 19OR 0.1 M PCB buffer pH 5.0, 25% PEG 3350, 10 mM spermidine (microseeded); 25OL 0.1 M PCB pH 4.0, 20% PEG 1500, 10 mM spermidine; temperature not stated; conditions: protein: recombinant; tags: N-terminal His6 removed with thrombin; chain copies: 2; (called 25 bp, but printed strand has 24 nt)
[2] = target: the molecule itself; test: crystal structure; co-crystal of C.Esp1396I with the 19 bp OR DNA duplex (19OR), protein:DNA 1:1, 0.1 M PCB buffer pH 5.0, 25% PEG 3350, 10 mM spermidine, microseeding; 3.0 Å, space group C2

| Binder | binding result [1] | binding result [2] |
| --- | --- | --- |
| 25OL (dsDNA) DNA 1: ATGTGACTTATAGTCGTGTGATTA DNA 2: TAATCACACGACTATAAGTCACAT | binds | – |
| controller protein C.Esp1396I (natural protein, controller protein (C-protein) of the plasmid-borne type II restriction-modification system Esp1396I; 'native C.Esp1396I'; Homodimer; The His tag was removed with thrombin before crystallisation; In both crystals the dimer stands together with a DNA duplex (19 bp OR or 25 bp OL plus half of OR); also called C-protein; not shown: His6, N-terminal, cleaved) MESFLLSKVSFVIKKIRLEKGMTQEDLAYKSNLDRTYISGIERNSRNLTIKSLELIMKGLEVSDVVFFEMLIKEILKHD | – | binds |

— PMC3758141, “Structural analysis of DNA–protein complexes regulating the restriction–modification system Esp1396I” (Acta Crystallographica Section F: Structural Biology and …, 2013)
